Where no end group is shown, it is not given here. [ ]: non-standard residue; d: D form. pGlu = O=C1CC[C@@H](C(=O)O)N1
Target: T1, MitTxβ (Micrurus tener tener (Texas coral snake), UniProt G9I930 31-149, disulfide bonds)
T1 sequence: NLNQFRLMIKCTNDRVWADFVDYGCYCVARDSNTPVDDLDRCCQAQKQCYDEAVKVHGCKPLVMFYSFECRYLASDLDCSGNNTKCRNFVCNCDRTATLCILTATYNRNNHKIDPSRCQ
Assay: ITC

B1: MitTxα (natural protein)
chain: [pGlu]IRPAFCYEDPPFFQKCGAFVDSYYFNRSRITCVHFFYGQCDVNQNHFTTMSECNRVCHG
modifications: not fully specified (bridges); also: disulfide bonds, pairing not given here
In the case of B1, the Kd is reported as 12.2 ± 3.1 nM.

Reference: article PMC3226747 (Nature, 2011)
